# In article PMC6201271:
# Target: UvrDΔCys(A100C) labeled with Cy3 (E. coli) (UniProt P03018)
# Assay: AUC
substance,measurement,value
E. coli MutL protein (from UniProt P23367 1-615) (natural protein),stoichiometry N (MutL dimer per UvrD-Cy3 monomer),1
